The values below come from patent US20250009878A1.

The assay concerns the target WT MCT1/BSG-2 complex (mouse) (mouse) (UniProt P53986). Briefly: cell-based or functional assay.
Chain of UniProt P53986 (P53986 whole entry, chain 1 of 2): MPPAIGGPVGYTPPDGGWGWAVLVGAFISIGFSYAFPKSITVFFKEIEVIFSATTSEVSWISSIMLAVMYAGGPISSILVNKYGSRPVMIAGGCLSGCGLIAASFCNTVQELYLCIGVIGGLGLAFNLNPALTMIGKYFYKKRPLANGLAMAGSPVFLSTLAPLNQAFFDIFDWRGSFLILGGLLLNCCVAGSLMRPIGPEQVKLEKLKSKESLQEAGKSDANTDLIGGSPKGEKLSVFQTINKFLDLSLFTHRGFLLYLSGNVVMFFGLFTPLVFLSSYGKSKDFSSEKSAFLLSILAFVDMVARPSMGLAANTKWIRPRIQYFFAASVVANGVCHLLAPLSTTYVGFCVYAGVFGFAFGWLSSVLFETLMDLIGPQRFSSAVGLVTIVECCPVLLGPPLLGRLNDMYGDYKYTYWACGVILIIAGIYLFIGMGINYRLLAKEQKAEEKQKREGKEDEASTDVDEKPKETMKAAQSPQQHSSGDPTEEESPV
Chain of UniProt P53986 (P18572 other isoform, or with tags, fused parts or gaps, chain 2 of 2, further chain): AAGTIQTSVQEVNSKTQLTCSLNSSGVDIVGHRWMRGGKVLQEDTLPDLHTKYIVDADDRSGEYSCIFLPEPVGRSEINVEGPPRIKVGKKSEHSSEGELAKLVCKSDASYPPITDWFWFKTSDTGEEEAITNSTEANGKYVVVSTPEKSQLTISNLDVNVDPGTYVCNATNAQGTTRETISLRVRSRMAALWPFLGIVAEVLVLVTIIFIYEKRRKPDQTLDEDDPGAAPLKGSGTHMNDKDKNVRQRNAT

B1: WZHAb10 (antibody, human IgG1, kappa, V domains shown)
VH: QVQLVQSGAEVKKPGASVKVSCKASGYTFTNYWIHWVRQAPGQGLEWMGMIHPNSGSINYNEKFKTRVTMTRDTSTSTVYMELSSLRSEDTAVYYCARVGSGSLDYWGQGTLVTVSS
VL: EIVLTQSPATLSLSPGERATLSCRASQSISDYLHWYQQKPGQAPRLLIKYVSQSISGIPARFSGSGSGTYFTLTISSLEPEDVAVYYCQNGEEAPYTFGQGTKLEIKR
B1: the decrease in transport activity (H+ influx, HPTS proteoliposome flux assay) worked out at 75%.
